Data published in US20120077730A1.

Biological target: human C5a receptor (C5aR) (human) (UniProt P21730)
Assay: cell-based or functional assay

UniProt P21730, sequence (P21730 whole entry): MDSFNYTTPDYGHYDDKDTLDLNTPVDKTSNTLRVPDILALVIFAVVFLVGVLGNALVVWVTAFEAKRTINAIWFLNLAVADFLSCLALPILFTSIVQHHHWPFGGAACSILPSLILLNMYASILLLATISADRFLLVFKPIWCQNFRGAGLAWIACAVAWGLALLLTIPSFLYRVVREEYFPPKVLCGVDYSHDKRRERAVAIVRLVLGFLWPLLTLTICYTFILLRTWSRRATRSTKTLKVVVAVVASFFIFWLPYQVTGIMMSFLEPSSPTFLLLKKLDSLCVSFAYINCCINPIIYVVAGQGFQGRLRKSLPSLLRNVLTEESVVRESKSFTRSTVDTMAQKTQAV

Substance | C5aR blocking activity relative to wt CHIPS1-121 (% of wt CHIPS1-121) | Chemotaxis IC50 [µg/mL]
CHIPS variant clone 376 (ADC-1004; CHIPS ΔN/C format) (from UniProt A6QIG7 31-113) | > 25 | 0.5
CHIPS ΔN/C (CHIPS31-113) (from UniProt A6QIG7 59-141) |  | 0.5
Wild-type (Wt) CHIPS1-121 (from UniProt A6QIG7 29-149) |  | 0.1
